Bridge positions count the residues as written; N and C are the ends. Square brackets hold non-standard residues; d marks the D form. Primed or numbered codes have the meaning given here. Ends that are not written are not given here. * marks the point of attachment. DOTA = O=C(O)CN1CCN(CC(=O)O)CCN(CC(=O)*)CCN(CC(=O)O)CC1; Biotin = O=C1N[C@H]2[C@H](CS[C@H]2CCCCC(=O)*)N1; PEG4′ = polyethylene glycol (PEG4) linker; Lys(Me3) = C[N+](C)(C)CCCC[C@H](N)C(=O)O; PEG4 = NCCOCCOCCOCCOCCC(=O)O
T1: Human Nectin-4 (human, UniProt Q96NY8 32-349, limits assumed)
T1 construct: Amine-coupled to the Biacore chip; also called target protein; ligand
T1 sequence: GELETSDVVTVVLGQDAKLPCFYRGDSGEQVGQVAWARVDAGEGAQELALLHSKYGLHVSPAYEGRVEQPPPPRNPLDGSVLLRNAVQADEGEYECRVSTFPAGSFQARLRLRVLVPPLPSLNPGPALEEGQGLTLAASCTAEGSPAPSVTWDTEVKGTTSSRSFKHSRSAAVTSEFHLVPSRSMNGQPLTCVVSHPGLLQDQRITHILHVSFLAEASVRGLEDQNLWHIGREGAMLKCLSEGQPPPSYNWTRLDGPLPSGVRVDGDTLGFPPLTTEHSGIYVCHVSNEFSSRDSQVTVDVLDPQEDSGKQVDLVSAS

B1: C1 (designed binder)
chain: H-CEDDGEYFAGLQRLYGGDICYYIKLKFPKVPDLCIKEILDKLGC-OH
modifications: disulfide 1-34, 20-44
B2: C3 (designed binder)
chain: H-CEYDEEFFAGLKRLRGGDICYYIKKKFDKVPDLCIKEILDKLGC-OH
modifications: disulfide 1-34, 20-44
B3: C4 (designed binder)
chain: H-CEDDFQFFADLKRLRGGDICYYIRLKFDKVPDLCIKEILDKLGC-OH
modifications: disulfide 1-34, 20-44
B4: C7 (designed binder)
chain: CEYDEEFFAGLKRLRGGDICYYIKKKFDKVPDLCIEEILDKLGC-OH
modifications: disulfide 1-34, 20-44
B5: C201 (designed binder)
chain: {Biotin-PEG4′}-CEYDEEFFTALKRLRGGDICEYIQA[Lys(Me3)]FQYLPGLCIEEILDNLGCS-OH
modifications: disulfide 1-34, 20-44

Test system: not listed separately
Test: in vivo
Details: female, athymic nude, mouse, tumor (HT1376 xenograft), total radioactivity
Protocol: In-111 labeling of miniproteins with MES buffer: In-111 was neutralized with 0.5 M MES buffer pH 5.5. This mixture was added to miniproteins prepared at 2 mg/mL in water with an equivalent amount of 0.5 M MES buffer pH 5.5, in a 1.5 mL Eppendorf vial and heated at 37° C. for 60 minutes. After the reaction, an HPLC sample was taken and an equivalent amount of 10 mM DTPA in 0.1 M ammonium acetate pH 5 was added and incubated for at least 15 minutes. The sample was then used for HPLC analysis.
In-111 labeling of miniproteins with Sodium Acetate buffer: In-111 was neutralized with 0.1 M sodium acetate buffer pH 5. […] After the reaction, an HPLC sample was taken and an equivalent amount of 10 mM DTPA in 0.1 M ammonium acetate pH 5 was added and incubated for at least 15 minutes. The sample was then used for HPLC analysis.
Purification of ^111In-miniproteins: Purification was done on two of the crude reaction mixtures mixed with 10 mM DTPA in 0.1 M ammonium acetate pH 5 and incubated for 15 minutes. A 3 kDa 0.5 mL Amicon filter was used for purification and the filter was spun at 15,000 RCF for 9 minutes. Saline was used as a formulation buffer.
Animals: Female athymic nude mice (6-8 weeks of age) were purchased from Charles River Laboratories and housed according to IACUC guidelines with ad libitum feeding. Biodistribution imaging experiments were performed on both null and tumor bearing athymic nude mice. Tumor xenograft models were generated by inoculating mice subcutaneously with 3×10^6 HT1376 cells, in 200 μL (50:50 PBS/Matrigel) in the right shoulder or right flank. Tumors were monitored for 14 days prior to SPECT/CT imaging dates. Mice with tumor volumes between 150 mm^3 and 250 mm^3 were selected for study inclusion and randomized to treatment arms. An excess of 60% of required imaging study mice were inoculated with tumor cells to ensure enough mice with appropriate tumor ranges were generated.
Animal grouping and Treatment: Animals were monitored for body weight bi-weekly and at the time of experimentation, grouped into groups of n=3. Animals were administered test-agents (TAs) that were prepared as described above. Animals received one of two standard injected dose activates and mass dose injections, depending at which site imaging studies were performed. • Site-1: 350 μCi of activity (^111In) at approximately […] peptide per mouse. • Site-2: 30MBq ([…]) of activity (^111In) at approximately 1 nM ([…]) of total peptide per mouse.
Animal imaging: Animals were sedated using isoflurane gas and imaged in a 3 bed hotel using a NanoScan SPECT/CT scanner. Animals were imaged at timepoints between 10 mins and 72 h post-dosing via SPECT scan, followed by CT scans. Details of the image process and analysis are described in Example 11.
Image Processing: Images were generated as SPECT/CT pair with the SPECT reported in units of activity. Namely, the values assigned to the voxels (volume elements) comprising the SPECT images were in units of μCi. SPECT images were co-registered to the CT scan for anatomical reference, resampled to 0.2 mm^3 voxels, masked to remove the CT background, and cropped to a uniform size prior to analysis.
Estimating tissue uptake: Regions of interest (ROIs) were defined using VivoQuant software. The kidneys and bladder were segmented as fixed volume phantoms and registered using the CT for anatomical reference. Two fixed volume spheres were used to create the liver ROI. Spheres were placed at appropriate anatomical locations based on CT and SPECT signal. Group and individual master spreadsheets were generated which included the volume, activity, and concentration (Activity/Volume) at each time point for each ROI generated. Additionally, plots of activity were generated using Matplotlib based python tools to highlight trends in the data.

| Molecule | tissue uptake at 4 h |
| --- | --- |
| {DOTA-PEG4}-CEYDEEFFTALSRLRGGDICYYIQQAFQYLPGLCIEEILDNLGCS (disulfide 1-34, 20-44) [Compound C133] | 1.29 %ID/g |
| {DOTA-PEG4}-CEYDEQFFTALARLRGGDICYYIQEQFATVPGLCIEEILDQLGCS (disulfide 1-34, 20-44) [Compound C129] | 1.77 %ID/g |
| {DOTA-PEG4}-CEYDEEFFTALKRLRGGDICYYIQKAFQYLPGLCIEEILDNLGCS (disulfide 1-34, 20-44) [Compound C121] | 2.03 %ID/g |
| {DOTA-PEG4}-CEYDEQFFTALSSLRGGDICYYIQEQFANVPGICIEEILDNLGCS (disulfide 1-34, 20-44) [Compound C137] | 1.12 %ID/g |
| {DOTA-PEG4}-CEYDEQFFTALKALRGGDICYYIQASFNYLPDLCIEEILDNLGCS (disulfide 1-34, 20-44) [Compound C113] | 1.65 %ID/g |
| {DOTA-PEG4}-CEYDEEFFTALKRLRGGDICYYIQAKFQYLPKLCIEEILDNLGCS (disulfide 1-34, 20-44) [Compound C117] | 2.29 %ID/g |

Target: T1, Human Nectin-4
Test: SPR (Biacore), Nectin-4 immobilised
Details: not given

| Molecule | Kd |
| --- | --- |
| B1 | 184 nM |
| B2 | 9.68 nM |
| B3 | 14.4 nM |
| B4 | 5.5 nM |
| B5 | 0.68 nM |
